Assay results as given in patent US20120022228A1, “PURIFICATION OF AMPHOTERIC PRODUCTS, OR OF PRODUCTS LIABLE TO BE CONVERTED INTO AMPHOTERIC PRODUCTS” (CENTRE NATIONAL DE LA RECHERCHE SCIENTIFIQUE, priority 2010, published 2012).
Peptide text beside a SMILES is read from it.

Experiments:
Type in all cases: physicochemical
[1] = Partition of dipeptides between organic and aqueous phase as a function of percentage of deprotonation of the exchanger (FIG. 4); conditions: exchanger DEHPA deprotonated to 30%
Description: FIG. 4 is a graphic representing the solubility of dipeptides in either an organic or an aqueous phase in function of the percentage of deprotonation of an exchanger dissolved in […]. In abscissae, the percentage of deprotonation of the exchanger is represented; said abscissae are graduated from 0 to 30%. The ordinates represent a partition coefficient between the organic phase and the aqueous phase, said ordinates being graduated from 0 to 1.
The Influence of the percentage of deprotonated exchanger over the CPC purification of dipeptides GG, GY and LV is determined. […]

[2] = Partition coefficient of SF328 evaluated by TLC in different biphasic solvent systems
Description: Partition coefficient of SF328 was evaluated by TLC in different biphasic solvent systems. In the elution mode, it is required that the KD value of the compound of interest lies between 0.2 and 5 (preferentially about 1).

[3] = CPC run in elution mode, stability of SF328 in the solvent system; conditions: MtBE/CH3CN/BuOH/Water 1% TFA (2:1:2:5, v/v), Example 54
Description: Only the system MtBE/CH3CN/BuOH/Water 1% TFA (2:1:2:5, v/v) was tested. The experimental conditions were: • Rotation speed: 1300 rpm. • Sample injected: 100 mg. • Elution mode: ascending. • Flow rate: 8 ml/min.
This system causes the degradation of SF328.

Molecule	peptide extraction (partition organic/aqueous phase) [1]	Evaluation KD ([2]; BuOH/Acetic acid/Water (4:1:5, v/v))	Evaluation KD ([2]; BuOH/Acetic acid/Water (5:1:4, v/v))	Evaluation KD ([2]; MtBE/CH3CN/BuOH/Water 1% TFA (2:1:2:5, v/v))	Evaluation KD ([2]; MtBE/CH3CN/Water (2:2:3, v/v))	Evaluation KD ([2]; MtBE/CH3CN/Water (3:2:5, v/v))	Stability in the solvent system [3]
CC(C)C[C@H](N)C(=O)N[C@H](C(=O)O)C(C)C [LV, LeucylValine] (H-Leu-Val-OH)	improvement	–	–	–	–	–	–
H-Asp-Glu-Asn-Pro-Val-Val-His-Phe-Phe-Lys-Asn-Ile-Val-Thr-Pro-Arg-Thr-OH (H-DENPVVHFFKNIVTPRT-OH) [SF328]	–	average	poor	good	poor	average	degradation
